One assay has as its system NFAT signaling pathways. Put plainly: U2OS NFAT EFC reporter assay, PMA/ionomycin stimulation. Format: cell-based. The conditions noted are these: 5,000 cells, stimulated 20h, components given together as cocktail, read-out: potency of the cocktail expressed as component concentration. As to the method: NFAT EFC Reporter construct includes a promoter with 4 tandemly repeated (4×) NFAT transcription factor binding response elements, each having the sequence: […] (SEQ ID NO:5).
Cells were stimulated for 20h followed by detection by PathHunter® FLASH detection reagent (+Enzyme Acceptor (EA)) with cell lysis for 1h. 5K and 10K refers to the number of cells plated in each well of a 384 well plate. S/B is signal (top) over background (bottom) of the assay response curve.
A “cell stimulation” cocktail of phorbol 12-myristate 13-acetate (PMA) and ionomycin is known to activate “NFAT signaling pathways” and the NFAT transcription factor. […] Inhibition could be detected as decreases in relative light units (RLUs) with test compounds in the presence of stimulating doses of cell stimulation cocktail or other activating ligands.
A general note: In a reporter assay the amount or activity of a reporter protein is the signal.

For a further assay, the system named is IL2 promoter. Put plainly: Jurkat IL2-promoter EFC reporter assay. The assay is classed as cell-based. The conditions noted are these: 5K cells, stimulated 16h; ionomycin via NFAT, PMA via AP-1 response elements. An excerpt: FIG. 9. Plasmid map for IL2-Promoter-EFC Reporter Plasmid. In this reporter construct, the complete endogenous IL2 gene promoter (“IL2prom”), which contains multiple specific transcription factor binding sites is fused upstream of and drives expression of carrier protein-ePL which is fused to a carrier protein. Contained within the IL2 promoter are binding sites for NFAT (1), NFkB (2), OCT (3), ARRE-2 (4) and NFAT/API (6) transcription factors and the IL2 minimal promoter (7). The DNA sequence of the IL2 promoter used is gtac[…]gctag (SEQ ID NO: 11) and is comprised of 8 different transcription factor binding sites and an IL-2 core promoter as described by Weaver et. al. (Molecular Immunology, 6 Mar. 2007, 44(11):2813-2819). The following 8 DNA elements […] (SEQ ID NO: 12), […] (SEQ ID NO:13), […] (SEQ ID NO:14), […] (SEQ ID NO:15), […] (SEQ ID NO:16), […] […]
FIG. 10. […] 5K Jurkat IL2 promoter reporter cells were plated in wells of 384 well plate and stimulated for 16h with either […] (squares) or […]+CD28 antibody (circles) at 37′C prior to adding FLASH detection reagent (+5×EA) with cell lysis (and reading EFC luminescence). […]
FIG. 11. […] 5K cells were plated in wells of 384 well plate and stimulated for 16h prior to adding FLASH detection reagent (+5×EA) with cell lysis (and reading luminescence). S/B is calculated by taking the RLU (with PMA/ionomycin)/RLU (without PMA/ionomycin).

For a further assay, the target named is T1, IL-6 receptor (Homo sapiens, UniProt P08887).
T1 construct: uses endogenous IL-6 receptor in HepG2 cells to detect IL-6 signaling; endogenous in cells; host or cells: HepG2
T1 sequence (P08887 20-468): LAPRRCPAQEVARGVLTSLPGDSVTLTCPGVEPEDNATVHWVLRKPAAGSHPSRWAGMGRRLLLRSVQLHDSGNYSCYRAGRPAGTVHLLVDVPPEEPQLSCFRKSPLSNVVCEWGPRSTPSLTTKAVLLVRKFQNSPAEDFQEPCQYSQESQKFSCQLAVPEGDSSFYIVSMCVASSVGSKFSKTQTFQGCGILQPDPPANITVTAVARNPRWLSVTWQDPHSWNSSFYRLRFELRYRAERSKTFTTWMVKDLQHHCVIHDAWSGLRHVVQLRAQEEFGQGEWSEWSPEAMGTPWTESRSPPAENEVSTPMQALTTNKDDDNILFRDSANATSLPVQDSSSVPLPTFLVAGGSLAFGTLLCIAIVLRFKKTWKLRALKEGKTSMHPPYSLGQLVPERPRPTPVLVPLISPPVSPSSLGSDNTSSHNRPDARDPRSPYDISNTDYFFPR
T1 sequence (P40189 23-918 partner): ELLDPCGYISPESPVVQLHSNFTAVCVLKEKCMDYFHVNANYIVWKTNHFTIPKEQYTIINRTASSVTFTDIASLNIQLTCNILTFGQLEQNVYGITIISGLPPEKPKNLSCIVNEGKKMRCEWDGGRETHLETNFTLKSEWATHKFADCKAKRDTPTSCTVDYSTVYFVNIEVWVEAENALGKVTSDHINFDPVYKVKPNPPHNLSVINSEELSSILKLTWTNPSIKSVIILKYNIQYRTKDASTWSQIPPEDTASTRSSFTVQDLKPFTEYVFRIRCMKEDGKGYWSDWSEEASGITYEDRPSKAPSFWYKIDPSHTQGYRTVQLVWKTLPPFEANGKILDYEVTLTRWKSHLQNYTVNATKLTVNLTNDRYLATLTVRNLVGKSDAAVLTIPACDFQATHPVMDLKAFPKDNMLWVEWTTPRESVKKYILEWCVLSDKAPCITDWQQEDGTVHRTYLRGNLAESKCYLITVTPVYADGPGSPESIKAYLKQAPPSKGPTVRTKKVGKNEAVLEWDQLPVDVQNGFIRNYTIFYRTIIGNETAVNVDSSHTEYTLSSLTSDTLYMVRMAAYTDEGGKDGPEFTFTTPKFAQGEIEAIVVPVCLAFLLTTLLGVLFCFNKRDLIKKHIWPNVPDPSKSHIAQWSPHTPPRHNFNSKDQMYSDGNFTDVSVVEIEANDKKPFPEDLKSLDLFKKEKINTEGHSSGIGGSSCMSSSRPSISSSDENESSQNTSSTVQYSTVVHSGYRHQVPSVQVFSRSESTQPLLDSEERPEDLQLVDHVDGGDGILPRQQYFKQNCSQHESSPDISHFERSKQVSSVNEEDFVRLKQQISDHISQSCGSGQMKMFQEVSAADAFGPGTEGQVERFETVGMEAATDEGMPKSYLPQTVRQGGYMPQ
Put plainly: HepG2 STAT3 pathway reporter cell line (Example 9). The assay is classed as cell-based. The conditions noted are these: 5000 cells/well; 16 h at 37 °C. The text has this: A reporter cell line was engineered to express an Enzyme Donor (ED) tagged carrier protein controlled by a pathway-inducible transcriptional response element. Pathway activation results in induced expressions of the ED-tagged protein. Addition of exogenous Enzyme Acceptor (EA), and buffer, lyses the cell and forces complementation of the ED and EA enzyme fragments.
In this example, the cell line is a STAT3 (signal transducer and activator of transcription 3) pathway reporter cell line. The cells are HepG2 cells that include a nucleic acid encoding a β-galactosidase donor fragment (ED) having the amino acid sequence […] (SEQ ID NO:30) operably coupled to a promoter region comprising a STAT3 response element.
Cells were plated in a 96-well plate and incubated at 37° C. and 5% CO2 to allow the cells to attach and grow. Cells were then stimulated with a control agonist (here, IL-6), using the assay conditions described below. Following stimulation, signal was detected using the PathHunter® ProLabel®/ProLink™ Detection Kit (Eurofins DiscoverX Corporation) according to the recommended protocol.
Cell line for HepG2 STAT3 assay uses endogenous IL-6 receptor in HepG2 cells to detect IL-6 signaling.

Assay [1] addresses endogenous IL-6 receptor in HepG2 cells (UniProt P08887). Kind of assay: cell-based or functional assay.
Assay [2] deals with CD40 receptor, endogenous in U2OS NFκB EFC reporter cells (UniProt P25942). Put plainly: cell-based or functional assay.
Chain of CD40 receptor, endogenous in U2OS NFκB EFC reporter cells (P25942 21-277 limits assumed): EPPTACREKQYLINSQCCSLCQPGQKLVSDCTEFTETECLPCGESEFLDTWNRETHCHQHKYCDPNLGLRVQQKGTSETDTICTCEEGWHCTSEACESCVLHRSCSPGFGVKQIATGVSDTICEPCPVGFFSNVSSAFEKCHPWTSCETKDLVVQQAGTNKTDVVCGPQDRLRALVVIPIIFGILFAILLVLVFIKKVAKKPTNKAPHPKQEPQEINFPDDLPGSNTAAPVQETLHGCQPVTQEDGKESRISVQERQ
The target in the next assay is TNFα (Homo sapiens, UniProt P01375). Kind of assay: U2OS NFkB EFC reporter assay, inhibition of TNFα-stimulated NF-κB signaling. Format: cell-based. As to the method: FIG. 5. Screening of inhibitors using U2OS NFkB EFC reporter cell-based assay. U2OS NFkB EFC reporter cells were treated with 2 nM TNFα (agonist) with or without various concentrations (and 3 lots) of anti-TNFα inhibitor adalimumab. In this example, the 3 lots of Humira tested were all derived from lot #1047318 run through a forced degradation protocol to simulate decreased specific activity or loss of activity where samples were non-stressed (e.g. the control), stressed 70° C. for 15 min and stressed 70° C. for 30 min.
Chain of TNFα (P01375 77-233 limits assumed): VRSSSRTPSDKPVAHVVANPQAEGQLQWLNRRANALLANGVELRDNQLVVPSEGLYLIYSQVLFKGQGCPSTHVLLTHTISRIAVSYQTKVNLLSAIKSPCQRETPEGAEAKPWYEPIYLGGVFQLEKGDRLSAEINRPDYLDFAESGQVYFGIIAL
U2OS NF-κB EFC Reporter cells can also be used to measure inhibition and study inhibitors of NF-κB signaling. […] The dose-dependence of this inhibitory response allowed measurement of the potency of different lots of adalimumab. […] Note that forced degradation is a method used in development of assay for biologics (protein therapeutics) to simulate lots with different potency, e.g. for QC/lot release assays, or loss of potency from various causes. […] The stability of Humira® over time can also be studied using this assay. It can be seen that two lots of Humira® stored at 4° C.
FIG. 6. […] The stability of expired lot #1017235 was also equivalent to that of lot #1047318 in the forced degradation experiment shown in FIG. 5.

Assay [3] deals with human T-cell receptor CD3 subunit on Jurkat cells (human) (UniProt P07766). Put plainly: cell-based or functional assay.

Where two headings read alike, the source gives them in different places.

Chain of CD40 ligand (CD40L) (P29965 113-261 limits assumed): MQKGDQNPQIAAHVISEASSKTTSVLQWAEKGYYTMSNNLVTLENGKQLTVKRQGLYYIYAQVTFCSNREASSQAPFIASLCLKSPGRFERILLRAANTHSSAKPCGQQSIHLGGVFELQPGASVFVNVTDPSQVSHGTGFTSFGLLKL
Chain of IL-6 (P05231 30-212 limits assumed): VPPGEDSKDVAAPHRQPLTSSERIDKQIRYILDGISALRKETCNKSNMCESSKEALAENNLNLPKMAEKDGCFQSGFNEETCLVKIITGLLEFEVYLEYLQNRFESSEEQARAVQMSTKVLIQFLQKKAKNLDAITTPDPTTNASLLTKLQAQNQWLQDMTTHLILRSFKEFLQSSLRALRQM

Turning to `CCCCCCCCCCCCCC(=O)O[C@@H]1[C@@H](C)[C@@]2(O)[C@@H](C=C(CO)C[C@]3(O)C(=O)C(C)=C[C@@H]23)[C@@H]2C(C)(C)[C@]12OC(C)=O` [PMA, phorbol 12-myristate 13-acetate], the EC50 in the assay with NFAT signaling pathways was 3.8 nM. Also, the “activation of elements in the IL2-promoter EFC reporter construct” value in the assay with IL2 promoter is reported as “increase the activation”.

In the case of “IL-6: control agonist signalling through endogenous IL-6 receptor in HepG2 cells”, in the assay with IL-6 receptor, the “EC50 for control agonist stimulation” value is 0.000601 µg/mL and the “signal:background ratio at agonist EMAX” value is listed as 21.3.

With “IL-6 (from UniProt P05231 30-212) (ligand)”, in assay [1], the EC50 for control agonist stimulation, HepG2 STAT3 pathway reporter cell line was determined as 0.000601 µg/mL and the signal:background ratio at agonist EMAX, HepG2 STAT3 pathway reporter cell line was 21.3.

For the molecule `C[C@H](CCC(=O)O)C[C@H](C)C[C@H](C)C(=O)/C=C(\O)[C@H](C)C[C@H](C)C/C=C/[C@@H](C)[C@@H](O)[C@@H](C)[C@@H](O)C[C@@H]1CC[C@@](C)([C@H]2CC[C@@](C)([C@@H](C)O)O2)O1` [ionomycin], the EC50 with NFAT signaling pathways (Homo sapiens, U2OS) turned out to be 63 nM. Moreover, the “activation of elements in the IL2-promoter EFC reporter construct” value in the assay on IL2 promoter is reported as “increase the activation”.

For the molecule “CD40 ligand (CD40L) (from UniProt P29965 113-261)”, in assay [2], the EC50 for control agonist stimulation, U2OS NF-κB pathway reporter cell line (Example 12) came out at 0.0886 µg/mL; the EC50 for control agonist stimulation, U2OS NFκB pathway reporter cell line (Example 7) was found to be 0.225 µg/mL; the signal:background ratio at agonist EMAX, U2OS NFκB pathway reporter cell line (Example 7) amounted to 26.3; the signal:background ratio, U2OS NF-κB pathway reporter cell line (Example 12) was 103.

adalimumab: the “inhibition of TNFα-stimulated NF-κB signaling” value on TNFα (2 nM TNFα (agonist)) is listed as “can inhibit”. In addition, the “change of inhibitory potency after forced degradation” value on TNFα (samples subjected to forced degradation for 0, 15 or 30 min at 70° C.) is “graded loss of potency (right shift)”.

For “OKT3 ligand expressed and presented on the surface of CHO-K1 cells (scFv)”, the EC50 of stimulating OKT3 cells, Jurkat NFAT EFC reporter co-culture assay in assay [3] stood at 700 cells.

In the case of anti-CD3 antibody [OKT3], in assay [3], the EC50 for control agonist stimulation, Jurkat NFAT pathway reporter cell line (Example 8, plate-coated antibody) was 0.302 µg/mL and the signal:background ratio at agonist EMAX, Jurkat NFAT pathway reporter cell line (Example 8) amounted to 7.6.
